The domain aggregation screens of Martell et al. (2025)

Test: soluble fraction after stress (log2 fold change); higher = more stays soluble; pooled small domains, quantitative proteomics
Conditions: stress: 75 degC
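Also: 20 min heating vs room temperature control held 20 min.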

Sequence	soluble fraction (log2)
HMIAVLEEGSHFRAVNDVTGKPFGPEMVIKNGQVTAVGKTISTKPKNLLGKKEGTKFVISGKQYVIKDI	-0.0244
HMLVKKYTEEETGRQAELSKQLAELSKAYYNTGNSMVDDAVFDKLRDELSSLEKESGFAYDISPNVS	-0.69
HMRLADHVVEKLLALVQDRGLQPGQKLPAERQLAEELGVSRTSVREAIQKLTSQGVLSARRGDGTYLQS	0.0739
HMRDQQHNIYLLEKAKRLYEEFLGDNRHIIAAEMARFEAVLETQDAIIIQRAQQQFSEFLNRFDG	-2.12
HMRMLLEERLDEIVKIVNERGSISNQELVKMFGASESTIRRDITTLANDNRVIRVHGGAMSVVS	-0.333
HMGLKQADFEELASRIFTVLEEKSMTPAEIVRKLNLEPDRISIVIQYLLDEGKLNIKDGFINNSA	-0.29
HMNEKLRNYIDTLFEHAPTTVRAVELKEEMFQNLTDKYNDLIAQGKSEEAAFNIAVASIGDVDSLIAGLS	0.179
HMKNLHLVPNVVGMSAKEAKNTLKSFNIKYKPIYGSSNKYDENYIFNQNPRKGKTIKEQEVVTIYISRGAD	-1.42
HMIMNKEIPVVADEFVEKEFGTGAVKLTPAHDPNDYESGERHGLEVVEVFDETGKMNDLVPEYEG	0.757
HMSLEDNEVIQRMKVILDRFDEETAVDRTTAFKAVLDHIGKMDAESKTLEHMAEMLEALLDKVLEE	-1.09
HMLHEFSGVVVSILADTGPSTLKQLHRSLISSDVKMDEKELMQILDEALSSGSVTSHRKGRYLYYSANK	-1.71
HMQMSDTGAIEAMVKEALDENPQAIEDFKNGKGKALGFLMGQVMKKSKGQANGGIVNKLIKEELQKRIG	0.292
HMEKGLQYRRTDRAIMNAFIKLVNQGSFEKLTVQEILDEALVSRNTFYAHYRDIYDLMDALSN	-1.52
HMTPAPHESLTDREMEVLKLLAQGLSNQEIADKLFIGVKTVKYHITNIFSKLGVEDRTQAAIYAHKQGLA	-0.475
HMDKIEVVEVDMSKPYEDMTVTELQNVILDKLASNGPVTNQMKKDVSENIYHDSLVNWAKSF	-0.0122
HMGVEVPRGDGSTVVRVRAGSSLADFAERIGADPAALITVLFRMGEMATVNQSLDEDTFKLLGAELGYDVQ	-0.704
HMDSISEQIYSIIKEEILLAKRKPGEQINPRKLADEFETSVMPIRDALNQLANEGLVIRKPRVGFFVR	-0.501
HMRSKTDLVYEEIKKLILRGELSSDTPISENHLARRFEISRTPIREALKRLHIEGFVRIIPNHGVFVR	-2.15
HMDISEIEKRLLDFLEMPRSRKEIAEHLGIRTISYAIQTYITPLIDKKLVKMTIPESPRSHSQQYVRIN	-1.92

Sequence	soluble fraction (log2)
HMEQVSDPALLERYAKEVVAASPKAVADYQAGNAKAFQALVGQMMKRTKGKGDPALIREILQKL	0.0645
HMDVQTVTVIENVNVRKSASENGQKLGLAYTGEKLELLMKQADGWTRVKYNGETAYVKSDYV	0.372
HMKEKPLWAIRITELREEHYFTQTDVSKALGIAQTTYAGYETGRHEPDFETMIKIADIYKVSLDYLIGR	-2.03
HMNTISTLEITTKKDIRILDESELLKSKSSKNNIFNYLLASGDFNLLKDKLNEIDEFSDEIISYQLN	-0.788
HMSEIYVDDINRKILYLLSQGIKTKSLLEHIPLSMSGIEKRKKQLKMLFSVEDGKDETLLEMAKEKGF	-2
HMKNELNSKLIISIKEALPPQIKVATYLMDLLSLGREAVYRRIRGDVSFDLEELSIISKALNISIDDVL	-3.9
HMDDSVTFSEFVRMVDSGQVESVRITGNEVTGSDSTGNTFRTFVPPQYEGLVNRLVERDVAVTAEE	0.149
HMPPSGPWEQDPPSEAQLKPFNEAMKRTADIDVDLYEKAKKALNDGTITKGNIYDWINREDSPWVLQDGS	0.241
HMYLYHDLSDEAKAMGDEYVSVEHLVLALIRYPNNAVKELFREFGITRERFLQVLSTIRGNQRVTSDNPEA	0.0272
HMTFTQFAESHGVIIKSLKASDKIQRGPTVAHPKSDNGAWLWDGNRGGVMAWDGDGQWYWFK	-1.73
HMSQLETEEAKRIVLKDLLRLYNNYNIIELEEDEFDRFITYLNMPYDFLQKTSDYDLAVSIKRMYASY	-2.28
HMTKEEREKREKYEKLMKKAEELTAAKNHREVINVLGQAKAYATAAQLKEIEEKIKAATSEMNK	0.326
HMDIGTRQRIIAAAMELFRQKGMDGMSMRELAERAGVNKGLLHYYFTTKEAIFREVFVHQVEM	-0.084
HMRVVPEILERAVAVFEALGVDRLPSSTLADRLGYDSPEALADVLRPLGVRPKKYRDGKSTARGYLAADLG	-0.526
HMAATVKVPDLTKMTPDEAQRALGQVGLKGKQGDDVDDDSVPVGYIAKQDEAPNSDAKAGDTITYHL	0.15
HMTTYVNGSWSGWNGSTVVKLTDGSVWRQAEYHYEYHYAYRPQARLERDELFVEGMSRGVRV	-0.0587
HMTISDTAYQAFLEQLGVGMVVEHKRFGEGVITGMPKGKIRITFEEGTKSFQARALAESGMLK	-0.875
HMLSFSEAERAVLSLLNRRPDLSAKALASELAVSARTVERYLQSLQQKGKLLRVGAKKGGYWQV	-0.842
HMTRDGMTKEAFDSLLEDIMNILLDNGLKATTMGSIAKSLKMSKRTLYEIFSSKSQMVEEAIIASHTKMM	0.214
